Reference: publication PMC3004248

Target: one-twelfth protomer of the giant extracellular haemoglobin from Glossoscolex paulistus (cyanomet HbGp) (Glossoscolex paulistus)
Test: crystal structure; cyanomet-HbGp, whole particle; crystals from 1.2 M sodium citrate, 2.5 mM CaCl2, 50 mM Tris-HCl pH 7.5; space group I222, data to 3.2 Å; molecular replacement with the one-twelfth protomer of L. terrestris erythrocruorin (2gtl); preliminary, not refined

stoichiometry N (protomers per full particle): 12
Substance: one-twelfth protomer of the giant extracellular haemoglobin from Glossoscolex paulistus (cyanomet HbGp) (complex)
